Each block holds one binder with its values, some of them ahead of it.
B3: human HHLA2-mIgG2a fusion protein (Fc fusion, not shown: a dimerising Fc or GST)
chain: IFPLAFFIYVPMNEQIVIGRLDEDIILPSSFERGSEVVIHWKYQDSYKVHSYYKGSDHLESQDPRYANRTSLFYNEIQNGNASLFFRRVSLLDEGIYTCYVGTAIQVITNKVVLKVGVFLTPVMKYEKRNTNSFLICSVLSVYPRPIITWKMDNTPISENNMEETGSLDSFSINSPLNITGSNSSYECTIENSLLKQTWTGRWTMKDGLHKMQSEHVSLSCQPVNDYFSPNQDFKVTWSRMKSGTFSVLAYYLSSSQNTIINESRFSWNKELINQSDFSMNLMDLNLSDSGEYLCNISSDEYTLLTIHTVHVEPSQETASHN
notes: also called hHHLA2-mIgG2a; HHLA2-Fc

What was measured:
[1] = target: T1, human HHLA2 expressed on transfected cells (300.19 mouse pre-B cells; CHO cells) (human, UniProt Q9UM44 23-414); assay: flow cytometry, staining and sorting of HHLA2-transfected 300.19 cells
T1 construct: also called B7-H7; B7H7
T1 sequence: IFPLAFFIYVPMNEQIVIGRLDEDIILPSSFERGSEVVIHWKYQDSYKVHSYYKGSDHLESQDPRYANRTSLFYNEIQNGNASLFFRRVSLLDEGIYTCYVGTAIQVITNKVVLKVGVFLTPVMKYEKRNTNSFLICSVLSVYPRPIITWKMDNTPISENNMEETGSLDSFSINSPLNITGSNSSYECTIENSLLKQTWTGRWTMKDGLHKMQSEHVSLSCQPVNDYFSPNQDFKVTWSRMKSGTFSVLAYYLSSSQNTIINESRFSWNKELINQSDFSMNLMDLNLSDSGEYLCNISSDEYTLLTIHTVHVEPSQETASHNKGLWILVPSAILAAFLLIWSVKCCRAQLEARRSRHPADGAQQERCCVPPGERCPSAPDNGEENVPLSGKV
Method: In particular, binding affinity for each anti-HHLA2 antibody was assayed. The HHLA2 cDNA and a vector encoding puromycin resistance were co-transfected by electroporation (300 volts, 1600 microfarads) into mouse 300.19 cells and selected with media containing 5 μg/ml puromycin. Cells expressing HHLA2 were identified by staining with TMIGD2-human Fc fusion protein and goat anti-human Fc antibody conjugated to phycoerythrin and single cell sorted by flow cytometry. Expression of HHLA2 in individual clones was confirmed by flow cytometry as described above. HHLA2-transfected 300.19 cells were titrated with anti-HHLA2 mAbs (FIG. 1A).

[2] = target: B3; assay: cell microarray, soluble HHLA2-mIg fusion protein on transfected HEK293 cells
[3] = target: T2, human KIR3DL3 expressed on transfected cells (HEK293 microarray, 293T, 300.19) (human, UniProt Q8N743 26-410); assay: cell microarray, HHLA2-mIgG2a on fixed KIR-transfected HEK293 cells, AF647 anti-mouse IgG detection
T2 construct: also called CD158Z; KIR3DL7
Method: (§1) Human HHLA2-mIgG2a fusion protein was added to slides of fixed, transfected HEK293 cell slides at a 20 ug/ml concentration, and the protein was detected with an AF647 labeled anti-mouse IgG detection antibody. Two replicate slides were screened for each of the 13 slide sets. Fluorescent images were analyzed and quantitated (for transfection efficiency) using ImageQuant software (GE). A protein ‘hit’ was defined as duplicate spots showing a raised signal compared to background levels. This was achieved by visual inspection using the images gridded on the ImageQuant software.
(§2) Addition of the AF647 labeled anti-mouse IgG detection antibody alone in the absence of HHLA2-mIgG2a produced no signal. The selectivity of HHLA2 binding to KIR3DL3 was evaluated using a panel of 14 KIR receptors arrayed on slides.

KIR3DS1 = target: T3, KIR3DS1 (human, UniProt Q14943 22-382); assay: cell microarray, HHLA2-mIgG2a on fixed transfected HEK293 cells, AF647 anti-mouse IgG detection
T3 construct: whole, on cells
Method: as §1, §2

KIR2DL2 = target: T4, KIR2DL2 (human, UniProt P43627 22-348); assay: as above
T4 construct: whole, on cells
Method: as §1, §2

KIR3DL2 = target: T5, KIR3DL2 (human, UniProt P43630 22-455); assay: as above
T5 construct: whole, on cells
Method: as §1, §2

KIR2DL5A = target: T6, KIR2DL5A (human, UniProt Q8N109 22-375); assay: as above
T6 construct: whole, on cells
Method: as §1, §2

KIR2DL4 = target: T7, KIR2DL4 (human, UniProt Q99706 22-377); assay: as above
T7 construct: whole, on cells
Method: as §1, §2

KIR3DL1 = target: T8, KIR3DL1 (human, UniProt P43629 22-444); assay: as above
T8 construct: whole, on cells
Method: as §1, §2

KIR2DL1 = target: T9, KIR2DL1 (human, UniProt P43626 22-348); assay: as above
T9 construct: whole, on cells
Method: as §1, §2

KIR2DL5B = target: T10, KIR2DL5B (human, UniProt Q8NHK3 22-375); assay: as above
T10 construct: whole, on cells
Method: as §1, §2

[4] = target: T11, cynomolgus monkey HHLA2 expressed on transfected 300.19 pre-B cells (cynomolgus monkey); assay: flow cytometry, mAb titrated on cynomolgus monkey HHLA2-transfected 300.19 pre-B cells
T11 construct: whole, on cells
Method: FIGS. 13A and 13B show HHLA2 mAb binding to human and cynomolgus monkey HHLA2. […] HHLA2 mAb binding to transfected 300.19 cells was detected with a PE-labeled goat anti-mouse IgG (H+L) by flow cytometry.
(§3) Binding of different HHLA2 mAbs to human and cynomolgus monkey HHLA2 was also tested and EC50 binding analysis was conducted (FIGS. 13A and 13B). […] HHLA2 mAb binding to transfected 300.19 cells was detected with PE-labeled goat anti-mouse IgG (H+L). EC50 analysis was conducted using Graph Pad Prism.

[5] = target: T1, human HHLA2 expressed on transfected …; assay: flow cytometry, mAb titrated on HHLA2-transfected 300.19 pre-B cells, PE goat anti-mouse IgG
Method: as §3

[6] = target: T1, human HHLA2 expressed on transfected …; assay: flow cytometry, mAb on HHLA2-transfected 300.19 mouse pre-B cells
[7] = target: B3; assay: flow cytometry, mAb pre-incubated with 4 ug/ml HHLA2-mIgG2a; blockade of its binding to KIR3DL3-transfected 300.19 pre-B cells
Method: (§4) HHLA2 mAb binding to transfected 300.19 cells was detected with PE-labeled goat anti-mouse IgG (H+L). […] EC50 and IC50 analyses were conducted using Graph Pad Prism. It was shown that HHLA2 mAb clone 2C4 has desired properties of complete KIR3DL3 blockade and partial TMIGD2 blockade (Table 7).

[8] = target: T1, human HHLA2 expressed on transfected …; assay: flow cytometry, mAb titrated on human HHLA2-transfected 300.19 pre-B cells
Method: as §3

[9] = target: T1, human HHLA2 expressed on transfected …; assay: flow cytometry, mAb titrated on HHLA2-transfected 300.19 pre-B cells, PE goat anti-mouse IgG; remark: listed apart in the source
Method: (§5) HHLA2 mAb cell binding and receptor blockade experiments were then performed. […] HHLA2 mAb binding to transfected 300.19 cells was detected with PE-labeled goat anti-mouse IgG (H+L). For HHLA2 mAb blocking experiments different concentration of HHLA2 mAbs were pre-incubated with 4 ug/ml of HHLA2-mIgG2a at a 1:1 ratio for 30 minutes and added to either TMIGD2 or KIR3DL3 transfected 293T cells and incubated for 30 minutes at 4° C. HHLA2-mIgG2a binding to TMIGD2 or KIR3DL3 transfected 293T cells was detected with a PE labeled Fab2 goat anti-mIgG2a antibody. EC50 and IC50 analyses were conducted using Graph Pad Prism. It was shown that HHLA2 mAb clone 2C4 has desired properties of complete KIR3DL3 blockade and partial TMIGD2 blockade (Table 6).

[10] = target: B3; assay: flow cytometry, mAb pre-incubated with 4 ug/ml HHLA2-mIgG2a; blockade of its binding to TMIGD2-transfected 293T cells
Method: as §5

[11] = target: B3; assay: flow cytometry, mAb pre-incubated with 4 ug/ml HHLA2-mIgG2a; blockade of its binding to KIR3DL3-transfected 293T cells
Method: as §5

[12] = target: B3; assay: flow cytometry, mAb pre-incubated with 4 ug/ml HHLA2-mIgG2a; blockade of its binding to TMIGD2-transfected 300.19 pre-B cells
Method: as §4

T8 sequence (P43629 22-444): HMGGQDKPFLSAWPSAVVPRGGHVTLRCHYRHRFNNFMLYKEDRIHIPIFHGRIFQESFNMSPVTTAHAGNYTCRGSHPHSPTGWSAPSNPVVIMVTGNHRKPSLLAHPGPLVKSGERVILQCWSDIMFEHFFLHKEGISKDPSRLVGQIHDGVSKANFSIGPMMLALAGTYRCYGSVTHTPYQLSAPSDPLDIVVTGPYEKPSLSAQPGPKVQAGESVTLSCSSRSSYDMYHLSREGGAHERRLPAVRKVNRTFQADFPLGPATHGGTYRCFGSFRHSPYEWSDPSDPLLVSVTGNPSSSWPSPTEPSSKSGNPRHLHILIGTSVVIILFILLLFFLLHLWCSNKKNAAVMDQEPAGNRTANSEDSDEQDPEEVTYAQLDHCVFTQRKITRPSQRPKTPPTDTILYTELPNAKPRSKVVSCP
T9 sequence (P43626 22-348): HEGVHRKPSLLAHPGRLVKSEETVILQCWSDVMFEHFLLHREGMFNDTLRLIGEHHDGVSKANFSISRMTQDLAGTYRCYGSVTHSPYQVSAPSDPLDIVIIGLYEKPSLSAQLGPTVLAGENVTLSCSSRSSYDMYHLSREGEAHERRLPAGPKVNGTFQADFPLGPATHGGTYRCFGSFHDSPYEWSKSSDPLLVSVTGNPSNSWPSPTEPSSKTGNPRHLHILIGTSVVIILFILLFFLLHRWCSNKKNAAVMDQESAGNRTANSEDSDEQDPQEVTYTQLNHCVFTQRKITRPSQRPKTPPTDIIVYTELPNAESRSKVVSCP
T4 sequence (P43627 22-348): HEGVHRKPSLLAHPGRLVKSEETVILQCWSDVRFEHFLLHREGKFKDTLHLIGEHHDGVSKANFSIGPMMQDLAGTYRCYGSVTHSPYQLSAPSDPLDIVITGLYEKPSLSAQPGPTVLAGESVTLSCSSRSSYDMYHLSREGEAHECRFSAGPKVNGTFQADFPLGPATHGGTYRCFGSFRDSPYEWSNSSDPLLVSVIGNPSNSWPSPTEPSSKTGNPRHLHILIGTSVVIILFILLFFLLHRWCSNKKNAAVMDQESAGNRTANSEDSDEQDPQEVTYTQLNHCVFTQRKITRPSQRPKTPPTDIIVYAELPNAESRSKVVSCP
T7 sequence (Q99706 22-377): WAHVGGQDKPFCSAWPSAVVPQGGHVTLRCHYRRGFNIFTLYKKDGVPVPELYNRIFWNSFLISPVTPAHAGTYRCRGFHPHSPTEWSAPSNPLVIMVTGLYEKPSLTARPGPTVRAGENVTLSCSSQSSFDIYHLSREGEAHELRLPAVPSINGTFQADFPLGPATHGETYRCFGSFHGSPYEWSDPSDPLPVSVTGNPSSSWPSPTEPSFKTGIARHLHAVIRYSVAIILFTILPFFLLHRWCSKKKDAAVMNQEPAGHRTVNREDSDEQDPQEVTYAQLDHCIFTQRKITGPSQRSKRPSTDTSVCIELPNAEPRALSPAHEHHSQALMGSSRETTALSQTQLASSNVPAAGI
T2 sequence (Q8N743 26-410 H321N limits assumed): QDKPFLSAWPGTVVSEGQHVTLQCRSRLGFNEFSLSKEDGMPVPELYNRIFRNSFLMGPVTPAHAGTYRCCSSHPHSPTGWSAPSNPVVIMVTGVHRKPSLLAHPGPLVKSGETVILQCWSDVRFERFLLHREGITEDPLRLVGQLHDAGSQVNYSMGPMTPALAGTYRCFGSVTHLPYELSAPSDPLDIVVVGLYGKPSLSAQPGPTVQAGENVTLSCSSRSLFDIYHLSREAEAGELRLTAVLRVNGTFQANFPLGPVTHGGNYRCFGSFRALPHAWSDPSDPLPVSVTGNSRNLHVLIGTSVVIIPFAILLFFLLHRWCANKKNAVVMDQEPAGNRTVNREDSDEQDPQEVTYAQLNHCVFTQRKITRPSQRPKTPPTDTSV
T10 sequence (Q8NHK3 22-375): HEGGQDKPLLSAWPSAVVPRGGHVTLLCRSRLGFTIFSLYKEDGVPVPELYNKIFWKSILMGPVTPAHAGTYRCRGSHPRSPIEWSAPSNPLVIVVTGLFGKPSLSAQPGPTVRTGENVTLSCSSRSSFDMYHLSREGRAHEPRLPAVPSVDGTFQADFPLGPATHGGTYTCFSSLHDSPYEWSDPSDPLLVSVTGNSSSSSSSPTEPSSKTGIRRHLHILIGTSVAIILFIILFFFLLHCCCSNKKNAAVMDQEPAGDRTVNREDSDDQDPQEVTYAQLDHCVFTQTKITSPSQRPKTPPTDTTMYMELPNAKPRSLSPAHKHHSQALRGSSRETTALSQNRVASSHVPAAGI
T6 sequence (Q8N109 22-375): as the sequence (Q8NHK3 22-375) above, with D152N, S174G counted along it
T3 sequence (Q14943 22-382): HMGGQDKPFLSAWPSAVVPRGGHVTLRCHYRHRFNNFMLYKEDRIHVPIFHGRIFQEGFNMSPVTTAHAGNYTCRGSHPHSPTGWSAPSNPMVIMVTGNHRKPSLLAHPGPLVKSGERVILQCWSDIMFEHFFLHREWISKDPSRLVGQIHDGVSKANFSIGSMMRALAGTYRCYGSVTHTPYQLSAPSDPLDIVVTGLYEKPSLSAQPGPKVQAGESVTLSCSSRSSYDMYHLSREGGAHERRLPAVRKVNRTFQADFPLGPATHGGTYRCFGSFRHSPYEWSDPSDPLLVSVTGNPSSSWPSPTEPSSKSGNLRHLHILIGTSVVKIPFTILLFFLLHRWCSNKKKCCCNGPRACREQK
T5 sequence (P43630 22-455): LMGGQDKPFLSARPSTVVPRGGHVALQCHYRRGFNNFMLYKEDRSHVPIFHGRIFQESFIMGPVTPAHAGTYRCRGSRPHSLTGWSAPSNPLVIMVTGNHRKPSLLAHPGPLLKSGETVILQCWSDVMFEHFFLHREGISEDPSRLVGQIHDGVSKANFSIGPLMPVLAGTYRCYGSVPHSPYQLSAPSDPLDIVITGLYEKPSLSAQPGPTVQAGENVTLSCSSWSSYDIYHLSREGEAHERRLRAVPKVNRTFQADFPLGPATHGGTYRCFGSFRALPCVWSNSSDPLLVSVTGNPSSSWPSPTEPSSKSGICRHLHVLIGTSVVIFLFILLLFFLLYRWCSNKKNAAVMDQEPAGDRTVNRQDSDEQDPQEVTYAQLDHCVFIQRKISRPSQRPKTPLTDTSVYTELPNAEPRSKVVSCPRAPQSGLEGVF

binding result [1]: binds
B1: human TMIGD2-human IgG1 fusion protein (R&D Systems catalog #8316-TR-050) (Fc fusion, UniProt Q96BF3 23-150, looked up)
chain: LSVQQGPNLLQVRQGSQATLVCQVDQATAWERLRVKWTKDGAILCQPYITNGSLSLGVCGPQGRLSWQAPSHLTLQLDPVSLNHSGAYVCWAAVEIPELEEAEGNITRLFVDPDDPTQNRNRIASFPG
notes: Bought reagent; also called TMIGD2-hIgG; TMIGD2-human Fc fusion protein; not shown: human IgG1 Fc portion of the bought fusion protein

binding result [2]: binds
B2: human TMIGD2 expressed on transfected cells (293T, 300.19, HEK293 microarray, Jurkat) (receptor)
chain: LSVQQGPNLLQVRQGSQATLVCQVDQATAWERLRVKWTKDGAILCQPYITNGSLSLGVCGPQGRLSWQAPSHLTLQLDPVSLNHSGAYVCWAAVEIPELEEAEGNITRLFVDPDDPTQNRNRIASFPGFLFVLLGVGSMGVAAIVWGAWFWGRRSCQQRDSGNSPGNAFYSNVLYRPRGAPKKSEDCSGEGKDQRGQSIYSTSFPQPAPRQPHLASRPCPSPRPCPSPRPGHPVSMVRVSPRPSPTQQPRPKGFPKVGEE
notes: The cDNA used in 293T and 300.19 cells is not tied to an entry in words; also called CD28H; IGPR1

Binder: B3
binding result [3]: binds
binding result (KIR3DS1): no binding (tested: 20 ug/ml)
binding result (KIR2DL2): no binding (tested: 20 ug/ml)
binding result (KIR3DL2): no binding (tested: 20 ug/ml)
binding result (KIR2DL5A): no binding (tested: 20 ug/ml)
binding result (KIR2DL4): no binding (tested: 20 ug/ml)
binding result (KIR3DL1): no binding (tested: 20 ug/ml)
binding result (KIR2DL1): no binding (tested: 20 ug/ml)
binding result (KIR2DL5B): no binding (tested: 20 ug/ml)

EC50 [4]: 0.4 µg/mL
EC50 [5]: 0.22 µg/mL
EC50 [6]: 0.25 µg/mL
IC50 [7]: 0.74 µg/mL
EC50 [8]: 0.22 µg/mL
EC50 [9]: 0.25 µg/mL
IC50 [10]: 0.55 µg/mL
IC50 [11]: 0.9 µg/mL
IC50 [12]: 0.92 µg/mL
B4: anti-HHLA2 monoclonal antibody 6F10 (antibody, IgG1, V domains shown)
VH: QVHLQQSAAELARPGASVKMSCKASGYTFTTYTMHWVKQRPGQGLEWIGHINPSSGYTDYNQKFKDKTTLTADKSSSTAYMQLNSLTSEDSAVYYCARHPWDSDYWGQGTTLTVSS
VL: DIQMTQSPASLSASVGETVTITCRASENIDSYLAWYQQKQGRSPQLLVYAATNLADGVPSRFSGSGSGTQFSLQINRLQSEDVARYYCQHYYITPFTFGSGTKLEIA
notes: also called 499.5.6F10.A4.10; MHC2557

Reference: US20210115144A1 (Dana-Farber, published 2021)
